Values joined by “and” are separate entries in the source; they are usually repeats but may differ in a detail not shown here. Equal values may be shown once. Where no end group is shown, it is not given here.
Assays:
[1] = biological target: dEV-8-loaded H-2 K^bm3 (mouse); assay: cell-based or functional assay
[2] = biological target: SIY-loaded H-2 K^b (mouse) (UniProt P01901); assay: cell-based or functional assay
[3] = biological target: p2Ca-loaded H-2 L^d (mouse) (UniProt P01897); assay: cell-based or functional assay
[4] = biological target: SIY-loaded H-2 K^bm3 (mouse); assay: cell-based or functional assay
[5] = tested on: 2C CTL, T2 K^b target cells; assay type: cell-based
Description: (§1) FIGS. 12(A-C). 2C CTL mediated lysis on various peptide/MHC targets. […] Peptide-loaded target cells were then incubated at an effector to target ratio of 10:1 and specific lysis calculated as described below. Data shown are representative of three separate experiments.
(§2) CTL Assays. Splenocytes from 2C TCR transgenic mice (Sha et al. Nature 336:73-76, 1988) were resuspended at 1.25×10^6 per ml and stimulated with 1.75×10^6 BALB/c splenocytes that had been exposed to 3,000 cGy radiation. On day 7, the 2C T cell-enriched cultures were restimulated at 5×10^5 per ml with 2.5×10^6 per ml BALB/c splenocytes. Experiments were performed on this and subsequent stimulationUs on day 4. All subsequent stimulation was performed with 3.75×10^5 per ml 2C splenocytes and 2.5×10^6 per ml BALB/c cells in the presence of IL-2 (5 units/ml).
(§3) Assays were performed in triplicate according to established CTL protocols. Briefly, target cells (2-4×10^6) were incubated with […] ^51[Cr] at 37° C. for 1 h. After three washes, cells were added to V-bottom 96 well plates (3×10^3/100 μl) and incubated (25° C. for 1.5 hour) with peptides at the indicated concentrations. 2C T cells (3×10^4/100 μl) were added to targets and plates were incubated at 37° C. for 4.5 hour. Maximum release was achieved by incubating targets with 5% Triton X 100. Percent specific lysis was calculated from raw data using [(experimental release—spontaneous release )/(maximum release—spontaneous release)]×100.

[6] = tested on: 2C CTL, T2 K^bm3 target cells; assay type: cell-based
Description: as §1, §2, §3

[7] = tested on: 2C CTL, T2 K^bm11 target cells; assay: 2C CTL mediated lysis of peptide-loaded T2 K^bm11 targets; assay type: cell-based, mice; conditions: data not shown
Description: as §2, §3

2C TCR = conditions: read-out: Kd (μM) of 2C TCR for peptide/MHC complex; MHC restriction H-2 Ld; monovalent 2C TCR; cited from earlier work
RENCA cells = assay: Effect of γ-IFN on endogenous peptide/H-2 L^d complexes of RENCA cells, FACS with 2C TCR/Ig or mAb 30.5.7; assay type: cell-based, murine; conditions: for effect of prior incubation of RENCA cells with peptide on 2C TCR/Ig binding: saturating peptide
Description: FIGS. 13(A-H). Fluorescence data showing modulation of endogenous 2C specific peptide/H-2 L^d complexes on the surface of RENCA cells by γ-IFN. RENCA cells were cultured for 48 hours with 0 (FIGS. 13A and 13E), 5 (FIGS. 13B and 13F), 10 (FIGS. 13C and 13G), or 50 (FIGS. 13D and 13H) units/ml γ-IFN. […] This was accomplished by incubating RENCA cells with saturating amounts of the H-2 L^d binding peptide, MCMV, which efficiently displaced the endogenous H-2 L^d bound peptides, including any 2C-reactive peptides. […] Cells were subsequently stained with GAM-IgG-RPE and analyzed by FACS. Resultant histograms are shown. Solid lines represent histograms of cultures with no added peptide while dotted lines represent histograms from cultures incubated with pMCMV. All experiments were done in duplicate and repeated at least three times. Note the differences in the extent of fluorescence (see the scales on the histograms) upon staining with 2C-TCR/Ig vs. staining with 30.5.7.
Peptide Loading of Cells. RMA-S and T2 cell lines are defective in antigen processing and express functionally “empty” class I MHC on their cell surface. These “empty” MHC molecules can be loaded with peptides using the following protocol (25). Cells (RMA-S, RMA-S L^d, T2, T2 L^d, T2 Kb, T2 Kbm3 or T2 K^bm11) are cultured at 27° C. overnight. The following morning, cells are cultured in the presence of various antigenic peptides (100 μM final concentration) or in the absence of peptides for an additional 1.5 hours at 27° C. and then incubated for one hour at 37° C. RENCA cells were loaded with peptides by incubation with peptides (100 μM final concentration) for >2 hour at 37° C. Cells were then harvested and processed for FACS analysis as described.
To analyze this possibility and to follow the expression of endogenous 2C-reactive peptide/H-2 L^d complexes within a heterogeneous peptide/MHC environment, the influence of γ-IFN on the H-2 L^d -expressing murine cell line RENCA was studied.
RENCA cells were cultured in the presence of variable amounts of γ-IFN to induce up-regulation of naturally loaded peptide/MHC complexes. […] The effect of γ-IFN was dose dependent with a maximal 2-3 fold increase seen on cells treated with 10 units/ml of γ-IFN.

[8] = biological target: serologically reactive H-2 L^d on RENCA cells (murine) (UniProt P01897); assay: flow cytometry on RENCA cells stimulated with 5-50 units/ml γ-IFN
[9] = biological target: serologically reactive H-2 L^d on RENCA cells (murine) (UniProt P01897); assay: flow cytometry on unstimulated RENCA cells
[10] = biological target: SL9-loaded H-2 L^d (mouse) (UniProt P01897); assay: direct flow cytometry on peptide-loaded RMA-S L^d cells
[11] = biological target: SIY-loaded H-2 K^b (mouse) (UniProt P01901); assay: flow cytometry on peptide-loaded T2 K^b cells
[12] = biological target: pVSV-loaded H-2 K^b (mouse) (UniProt P01901); assay: flow cytometry on peptide-loaded T2 K^b cells
[13] = biological target: pVSV-loaded H-2 K^bm3 (mouse); assay: flow cytometry on peptide-loaded T2 K^bm3 cells
[14] = biological target: SIY-loaded H-2 K^bm3 (mouse); assay: flow cytometry on peptide-loaded T2 K^bm3 cells
[15] = biological target: QL9-loaded H-2 L^d (mouse) (UniProt P01897); assay: flow cytometry, serial dilutions on peptide-loaded RMA-S L^d cells, H57-FITC detection
[16] = biological target: p2Ca-loaded H-2 L^d (mouse) (UniProt P01897); assay: as above
[17] = biological target: QL9-loaded H-2 L^d (mouse) (UniProt P01897); assay: direct flow cytometry on peptide-loaded L^d cells

Chain of soluble divalent 2C TCR/Ig (A2KF29 whole entry, looked up, tested part not stated): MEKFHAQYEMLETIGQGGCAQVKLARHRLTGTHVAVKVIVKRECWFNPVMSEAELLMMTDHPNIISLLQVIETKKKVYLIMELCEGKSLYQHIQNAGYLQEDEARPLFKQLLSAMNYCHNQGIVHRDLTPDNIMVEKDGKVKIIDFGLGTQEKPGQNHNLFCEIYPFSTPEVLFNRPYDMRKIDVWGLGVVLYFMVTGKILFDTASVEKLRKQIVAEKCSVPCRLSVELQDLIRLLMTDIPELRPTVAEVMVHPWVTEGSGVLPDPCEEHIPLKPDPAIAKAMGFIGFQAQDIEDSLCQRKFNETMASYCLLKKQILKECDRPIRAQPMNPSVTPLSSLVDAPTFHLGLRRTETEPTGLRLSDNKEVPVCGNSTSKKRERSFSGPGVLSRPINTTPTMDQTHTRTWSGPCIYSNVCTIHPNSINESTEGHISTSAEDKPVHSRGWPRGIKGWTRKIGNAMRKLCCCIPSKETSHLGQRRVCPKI
Chain of 2C TCR on 2C CTL (A2KF29 whole entry): as the sequence (A2KF29 whole entry, looked up, tested part not stated) above
Chain of serologically reactive H-2 L^d on RENCA cells (murine) (P01897 25-362): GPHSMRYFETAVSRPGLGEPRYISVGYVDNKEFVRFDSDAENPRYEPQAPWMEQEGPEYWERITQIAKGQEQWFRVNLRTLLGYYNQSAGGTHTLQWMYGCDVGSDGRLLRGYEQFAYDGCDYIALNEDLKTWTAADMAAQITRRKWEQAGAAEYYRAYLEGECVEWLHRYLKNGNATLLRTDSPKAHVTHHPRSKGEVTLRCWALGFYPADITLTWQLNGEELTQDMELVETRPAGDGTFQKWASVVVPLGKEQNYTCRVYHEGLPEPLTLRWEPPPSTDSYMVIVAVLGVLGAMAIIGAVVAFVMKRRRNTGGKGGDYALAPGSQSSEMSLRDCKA
Chain of p2Ca-loaded H-2 L^d (mouse) (P01897 25-362): as above
Chain of QL9-loaded H-2 L^d (mouse) (P01897 25-362): as above
Chain of SIY-loaded H-2 K^b (mouse) (P01901 22-369): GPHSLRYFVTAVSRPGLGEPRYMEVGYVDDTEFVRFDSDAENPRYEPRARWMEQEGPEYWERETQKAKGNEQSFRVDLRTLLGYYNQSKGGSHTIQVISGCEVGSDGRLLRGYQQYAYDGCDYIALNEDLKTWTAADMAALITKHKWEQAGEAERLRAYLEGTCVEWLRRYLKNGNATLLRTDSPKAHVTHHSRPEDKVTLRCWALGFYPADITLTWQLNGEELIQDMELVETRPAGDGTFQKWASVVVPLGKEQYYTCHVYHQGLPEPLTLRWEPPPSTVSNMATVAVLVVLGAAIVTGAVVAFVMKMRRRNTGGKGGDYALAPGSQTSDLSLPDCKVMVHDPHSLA
Chain of pVSV-loaded H-2 K^b (mouse) (P01901 22-369): as above
Chain of SL9-loaded H-2 L^d (mouse) (P01897 25-309): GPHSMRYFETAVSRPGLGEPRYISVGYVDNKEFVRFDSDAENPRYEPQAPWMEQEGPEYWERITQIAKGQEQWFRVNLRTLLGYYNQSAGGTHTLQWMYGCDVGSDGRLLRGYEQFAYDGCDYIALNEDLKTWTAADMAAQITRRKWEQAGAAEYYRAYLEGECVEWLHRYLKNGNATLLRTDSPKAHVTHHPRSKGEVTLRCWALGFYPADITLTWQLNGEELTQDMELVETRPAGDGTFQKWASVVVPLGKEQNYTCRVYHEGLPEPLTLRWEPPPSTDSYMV

Substance: 2C TCR on 2C CTL (from UniProt A2KF29)
- LD50 of peptide for 2C CTL mediated lysis [1]: 0.5 ng/mL and 1 ng/mL
- LD50 of peptide for 2C CTL mediated lysis [2]: 10 ng/mL
- LD50 of peptide for 2C CTL mediated lysis of p2Ca-loaded T2 L^d cells [3]: 0.5 ng/mL
- LD50 of peptide for 2C CTL mediated lysis [4]: 100 ng/mL

Substance: EQYKFYSV [dEV-8]
- 2C CTL mediated lysis of peptide loaded targets [5]: neither lysed
- 2C CTL mediated lysis of peptide loaded targets [6]: efficiently lysed
- 2C CTL mediated lysis of peptide loaded targets [7]: relatively poor targets

Substance: LSPFPFDL [p2Ca]
- Kd (2C TCR): 0.1 to 0.5 µM

Substance: LSPFPFDLL [SL9]
- Kd (2C TCR): 71 µM

Substance: QLSPFPFDL [QL9]
- effect of prior incubation of RENCA cells with peptide on 2C TCR/Ig binding (RENCA cells): dramatic increase
- Kd (2C TCR): 0.066 µM

Substance: SIYRYYGL [SIY]
- 2C CTL mediated lysis of peptide loaded targets [5]: efficient lysis
- 2C CTL mediated lysis of peptide loaded targets [6]: significantly less efficient
- LD50 of peptide for 2C CTL mediated lysis ([6]; T2 K^bm3 targets, effector to target ratio 10:1): ~100 ng/mL
- 2C CTL mediated lysis of peptide loaded targets [7]: efficient lysis

Substance: YPHFMPTNL [pMCMV]
- effect of prior incubation of RENCA cells with peptide on 2C TCR/Ig binding (RENCA cells): blocked

Substance: mAb 30.5.7 (antibody)
- mean channel fluorescence (MCF) [8]: 2670 to 3040
- mean channel fluorescence (MCF) [9]: 500

Substance: soluble divalent 2C TCR/Ig (from UniProt A2KF29)
- mean channel fluorescence (MCF) [10]: 100
- mean channel fluorescence (MCF) [11]: 276
- mean channel fluorescence (MCF) [12]: 14
- mean channel fluorescence (MCF) [13]: 12
- mean channel fluorescence (MCF) [14]: 36
- lowest concentration tested, at which binding was detected [15]: 1 nM
- concentration required to detect binding [16]: 3 nM
- mean channel fluorescence (MCF) [17]: 3000

Substance: γ-IFN: lymphokine used to up-regulate naturally loaded peptide/MHC complexes on RENCA cells
- increase in serologically reactive H-2 L^d recognized by mAb 30.5.7 (RENCA cells; 5-50 units/ml γ-IFN, 48 hours): 5-6 fold
- maximal increase of 2C TCR/Ig binding to RENCA cells (RENCA cells; 10 units/ml γ-IFN, 48 hours): 2-3 fold
